# Source: the supplement of paper PMC10126150
# ± gives the standard deviation of the averaged measurements.
# Tested on: ATP
# Assay: switch fluorescence ratio, 500 uM ATP over buffer (Cy3 cluster intensity, sum of 5 cycles each) (fold (ratio)); higher = stronger signal-on switching upon ATP binding; sequences stand for … in TCGTCGGCAGCGTCAGATGTGTATAAGAGACAGTTTTTTTTTTTTTTTTTTTTTTTTT…TC
# Settings: aptamer strand: ATP DNA aptamer (quencher-CACCTGGGGGAGTATTGCGGAGGAAGG + anchor), 100 nM annealed; ATP concentration: 500 uM
# Outline: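 Exposure to 500 uM ATP lasted 15 min at 22 °C before imaging, and a selection-buffer image was taken beforehand, for Cy3-labelled switching-strand clusters on a modified Illumina MiSeq flow-cell annealed to 100 nM quencher-labelled ATP aptamer. Five buffer/ATP cycles were run with NaOH stripping and re-annealing between them. The fluorescence ratio per cluster is summed target-cycle over summed buffer-cycle Cy3 intensity, averaged per switch-domain sequence. Clusters outside 100-1000 RFU were excluded.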
row,Sequence,switch fluorescence ratio
1,TAAGTTGTAT,1 ± 0.035
2,TAAGTTTGCC,1.01 ± 0.04
3,TAAGTTTGGG,0.968 ± 0.04
4,TAAGTTTGGT,0.985 ± 0.021
5,TAAGTTTTGG,0.974 ± 0.017
6,TAATAAAGAT,0.969 ± 0.054
7,TAATAACTCT,1 ± 0.061
8,TAATAATGGA,1.01 ± 0.035
9,TAATAATTCG,1.01 ± 0.012
10,TAATACCGTA,1.06 ± 0.084
11,TAATACTGTT,0.888 ± 0.031
12,TAATACTTTG,1.04 ± 0.024
13,TAATAGAGCT,0.995 ± 0.03
14,TAATCAGAGC,1.02 ± 0.039
15,TAATCAGGGG,1.07 ± 0.16
16,TAATCCCGGG,1.3 ± 0.4
17,TAATCCTAGT,0.997 ± 0.036
18,TAATCGCATA,2.05 ± 1.2
19,TAATCGGCCT,1.04 ± 0.05
20,TAATCGGGGA,0.984 ± 0.029
21,TAATCGTGTT,0.983 ± 0.014
22,TAATCTGCTG,1.01 ± 0.02
23,TAATCTGGTA,0.986 ± 0.017
24,TAATCTTAGA,0.99489 ± 5.2e-05
25,TAATGACCTT,1.16 ± 0.18

row,Sequence,switch fluorescence ratio
1,TAATGCAATA,1.67 ± 0.054
2,TAATGCGGGA,1 ± 0.027
3,TAATGCTGTG,0.984 ± 0.036
4,TAATGCTTGG,1.01 ± 0.031
5,TAATGGAGGT,0.979 ± 0.038
6,TAATGGAGTA,1.01 ± 0.052
7,TAATGGATCG,1 ± 0.044
8,TAATGGCCTT,0.9862 ± 0.0021
9,TAATGGGATA,1.02 ± 0.055
10,TAATGGGATG,0.974 ± 0.015
11,TAATGGGGAT,0.989 ± 0.022
12,TAATGGGTGC,1.06 ± 0.038
13,TAATGGTCAC,1.01 ± 0.011
14,TAATGTTACT,1.04 ± 0.039
15,TAATGTTATG,1.03 ± 0.017
16,TAATGTTTGT,0.986 ± 0.048
17,TAATTACGGA,1.06 ± 0.026
18,TAATTACTAT,1.12 ± 0.17
19,TAATTATATT,0.988 ± 0.023
20,TAATTATCCG,1.05 ± 0.044
21,TAATTCGCGA,1.15 ± 0.034
22,TAATTCGGGG,0.97 ± 0.057
23,TAATTCTGGT,0.965 ± 0.025
24,TAATTCTTTT,0.986 ± 0.029
25,TAATTGGGAG,1.01 ± 0.02

row,Sequence,switch fluorescence ratio
1,TAATTGGGGG,1 ± 0.03
2,TAATTGGTTG,0.982 ± 0.012
3,TAATTTATCC,1.022 ± 0.0095
4,TAATTTGGA,0.9652 ± 0.004
5,TAATTTGGGA,0.997 ± 0.013
6,TAATTTGGGT,1 ± 0.015
7,TAATTTGTTG,0.988 ± 0.028
8,TAATTTTAGT,1.0092 ± 0.00027
9,TAATTTTATG,0.998 ± 0.025
10,TAATTTTTAG,1.01 ± 0.025
11,TAATTTTTGT,0.993 ± 0.026
12,TACAAAGATG,1.025 ± 0.0056
13,TACAAAGCAG,1.11 ± 0.037
14,TACAAAGGCG,1.06 ± 0.018
15,TACAAATTGT,1.03 ± 0.025
16,TACAAGAATA,0.986 ± 0.03
17,TACAATCGGA,0.9791 ± 0.0067
18,TACAATGCTT,1.02 ± 0.017
19,TACACCTTTC,2.3 ± 0.073
20,TACACTGGCG,1.05 ± 0.057
21,TACAGATGT,1.028 ± 0.01
22,TACAGCACTG,1.29 ± 0.15
23,TACAGCTAAA,1.03 ± 0.032
24,TACAGCTTAA,1.022 ± 0.0019
25,TACAGGAGGG,1.01 ± 0.021

row,Sequence,switch fluorescence ratio
1,TACAGGCTGA,0.9858 ± 0.0046
2,TACAGGGGAA,1.09 ± 0.056
3,TACAGGGTCG,1.13 ± 0.049
4,TACAGGGTTT,1.021 ± 0.005
5,TACAGGTGCA,1.81 ± 0.022
6,TACAGTGTTT,0.975 ± 0.025
7,TACAGTTACC,1.31 ± 0.11
8,TACATATTTT,1.05 ± 0.043
9,TACATCTGAA,0.993 ± 0.023
10,TACCAAAAAA,1.2 ± 0.18
11,TACCAACTTA,1.1 ± 0.033
12,TACCATATTT,1.04 ± 0.021
13,TACCATGCGG,1.023 ± 0.01
14,TACCATTTGT,1 ± 0.044
15,TACCCAGGGA,1.64 ± 0.13
16,TACCCGACTT,1.13 ± 0.009
17,TACCCGCTGT,1.56 ± 0.39
18,TACCGGATGG,1.03 ± 0.021
19,TACCGGGGGC,1.14 ± 0.09
20,TACCGGTTCG,1 ± 0.011
21,TACCGTGGGC,1.04 ± 0.036
22,TACCTATTTT,1.035 ± 0.0014
23,TACCTGGGTC,0.996 ± 0.028
24,TACCTGGTAC,1.056 ± 0.0043
25,TACGACCGTG,1.01 ± 0.046
